Paper PMC13234300, “De novo and scaffold-based design of GDF15 binders for cancer cachexia diagnostics and therapeutics” (Experimental & Molecular Medicine, 2026)
Blank lines part the entries; values can stand above or below the molecule they belong to.

Legend:
[1] = target: recombinant mature human GDF15 dimer, N-glyco-engineered variant (R198N and G200T), Twin-Strep tagged (human) (UniProt Q99988); test: SPR
[2] = target: T1, recombinant mature human GDF15 dimer, N-glyco-engineered variant (R198N and G200T), Twin-Strep tagged (human, UniProt Q99988 198-308, R198N | G200T); test: SPR; Biacore T200; GDF15 dimer immobilised on CM5 chip by amine coupling (10 mM sodium acetate, pH 5.5); HBS-EP+ (0.01 M HEPES pH 7.4, 0.15 M NaCl, 3 mM EDTA, 0.05% P20); analytes 5-100 nM, 300 s association, 300 s dissociation, 30 μl/min; two-state reaction model; settings: both partners purified
T1 construct: mature human GDF15, residues 198–308, N-glyco-engineered variant (R198N and G200T); no cleavage step is described (eluted with desthiobiotin, then SEC); also called Twin-Strep-GDF15 dimer; growth differentiation factor-15; source: Expi293F, transfected, purified from supernatant (Strep-Tactin-XT, SEC)
T1 sequence (looked up): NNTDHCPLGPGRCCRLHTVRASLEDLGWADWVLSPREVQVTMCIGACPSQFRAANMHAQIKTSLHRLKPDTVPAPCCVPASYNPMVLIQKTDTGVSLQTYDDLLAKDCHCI

[3] = target: T2, recombinant mature human GDF15 dimer, N-glyco-engineered variant (R198N and G200T), Twin-Strep tagged (human, UniProt Q99988 198-308, R198N | G200T); test: SPR
T2 sequence: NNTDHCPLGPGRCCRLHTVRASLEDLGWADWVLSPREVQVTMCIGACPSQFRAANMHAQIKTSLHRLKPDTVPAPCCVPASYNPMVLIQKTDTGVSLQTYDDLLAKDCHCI

[4] = target: T1, recombinant mature human GDF15 dimer, …; test: SPR; Biacore T200; GDF15 dimer immobilised on CM5 chip by amine coupling; HBS-EP+; analyte 5-50 nM in the figure; 1:1 binding model; apparent (avidity of the Fc dimer); settings: both partners purified

- Kd [1]: 0.0802 nM
- koff [1]: 2.24e-05 s⁻¹
Molecule: ponsegromab

- Kd [2]: 90.4 nM
B1: human GFRAL D2 domain (residues 115–217) (domain or fragment, UniProt Q6UXV0 115-217, looked up)
chain: WNLTTRSHHGFKGMWSCLEVAEACVGDVVCNAQLASYLKACSANGNPCDLKQCQAAIRFFYQNIPFNIAQMLAFCDCAQSDIPCQQSKEALHSKTCAVNMVPP
notes: human GFRAL (glial cell-derived neurotrophic factor family receptor alpha-like), D2 domain, residues 115–217; the expressed construct as residues 115–217; also called hGFRAL D2; initial scaffold; source: Expi293F, transfected, purified (protein A, on-resin thrombin cleavage, SEC); not shown: Fc, C-terminal, cleaved

- koff [3]: 7.16e-05 s⁻¹
- Kd [4]: 0.081 nM
B2: SGA2-4-Fc (Fc-fused SGA2-4 binder, homodimeric decoy receptor) (Fc fusion)
chain: VTVFEALDAIIADPQSNAALAAHLKAVAALPADATKAQVDAIYDAFLAQLPAEVRAKVLAAKPDPTNPDEIQLYNQLRGYDKL
modifications: Homodimer through a C-terminal human IgG Fc (isotype and limits not given). The Fc, thrombin site and 6xHis tag are left out; the Fc only provides bivalency/avidity. Expressed in mammalian cells.
